The target in assay [1] is T1, rHuman ErbB2/Fc Chimera, CF (R&D Systems Cat#1129-ER) (human, UniProt P04626 23-652).
T1 construct: Bought reagent; also called HER2/neu; human epidermal growth factor 2 receptor; Fc part of the bought chimera not given
As to the kind of experiment: ECL (MSD multi-spot), antigen spotted on plate; Fab 22 nM; blank spot 289.

Assay [2] concerns the target T2, rHuman EGF R/Fc Chimera, CF (R&D Systems Cat#344-ER) (human, UniProt P00533 25-645).
T2 construct: Bought reagent; also called epidermal growth factor receptor; Fc part of the bought chimera not given
The assay is described as above.

Assay [3] addresses T3, rHuman HGF R/c-MET/Fc Chimera, CF (R&D Systems Cat#358-MT/CF) (human, UniProt P08581 25-932).
T3 construct: Bought reagent; also called HGF R/Fc; hepatocyte growth factor receptor; Fc part of the bought chimera not given
The assay is described as above.

The target of assay [4] is T4, rHuman Notch-1/Fc Chimera, CF (R&D Systems Cat#3647-TK) (human, UniProt P46531 19-526).
T4 construct: Bought reagent; Fc part of the bought chimera not given
Described as above.

The target in assay [5] is T5, rHuman CD44/Fc Chimera, CF (R&D Systems Cat#3660-CD) (human, UniProt P16070 21-220).
T5 construct: Bought reagent; Fc part of the bought chimera not given
Described as above.

Assay [6] concerns the target T6, rHuman IGF-1 sR (IGF-1 sR), CF (R&D Systems Cat#391-GR) (human, UniProt P08069 31-932).
T6 construct: Bought soluble receptor; also called insulin-like growth factor-1 soluble receptor; IGF-R1
The description is as above.

In assay [7] the target is T7, rHuman P-Cadherin/Fc Chimera, CF (R&D Systems Cat#861-PC) (human, UniProt P22223 108-654).
T7 construct: Bought reagent; also called CDH3; Fc part of the bought chimera not given
Described as above.

Assay [8] concerns the target T8, rHuman ErbB2/Fc Chimera, CF (R&D Systems Cat#1129-ER) (human, UniProt P04626 23-652).
T8 construct: Bought Fc chimera; also called human epidermal growth factor 2 receptor; HER2/neu; Fc part of the bought chimera not given
Put plainly: ECL (MSD Multi-Spot) binding, antigen spotted on plate; Fab 0.5 nM.

Assay [9] deals with T9, rHuman HGF R/c-MET/Fc Chimera, CF (R&D Systems Cat#358-MT/CF) (human, UniProt P08581 25-932).
T9 construct: Bought Fc chimera; also called HGF R/Fc; hepatocyte growth factor receptor; Fc part of the bought chimera not given
The description is as above.

Assay [10] has as its target T10, rHuman IGF-1 sR (insulin-like growth factor-1 soluble receptor), CF (R&D Systems Cat#391-GR) (human, UniProt P08069 31-932).
T10 construct: Bought soluble receptor; also called IGF-R1
Put plainly: ECL (MSD multi-spot), antigen on plate, Fab 50 nM.

Assay [11] concerns the target T11, rHuman P-Cadherin/Fc Chimera, CF (R&D Systems Cat#861-PC) (human, UniProt P22223 108-654).
T11 construct: Bought Fc chimera; also called CDH3; not shown: Fc of the bought chimera
As to the kind of experiment: ECL (MSD multi-spot), antigen on plate, Fab 50 nM.

Assay [12] addresses T12, rHuman Erythropoietin R/Fc Chimera, CF (R&D Systems Cat#963-ER) (human, UniProt P19235 25-250).
T12 construct: Bought Fc chimera; also called EPO R/Fc; Epo R; not shown: Fc of the bought chimera
T12 sequence: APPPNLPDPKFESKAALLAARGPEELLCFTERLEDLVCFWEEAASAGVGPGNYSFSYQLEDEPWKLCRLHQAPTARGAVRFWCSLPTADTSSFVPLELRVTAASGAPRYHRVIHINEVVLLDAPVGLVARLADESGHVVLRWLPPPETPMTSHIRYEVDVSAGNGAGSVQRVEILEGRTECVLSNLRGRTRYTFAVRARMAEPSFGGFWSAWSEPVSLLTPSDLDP
As to the kind of experiment: ECL (MSD multi-spot), antigen on plate, Fab 50 nM.

In assay [13] the target is T13, Recombinant Human DLL4 (R&D Systems Cat#1506-D4/CF) (human, UniProt Q9NR61 27-524).
T13 construct: Bought recombinant protein; also called delta-like protein 4
As to the kind of experiment: ECL (MSD multi-spot), antigen on plate, Fab 50 nM.

The target in assay [14] is T14, rHuman ErbB2/Fc Chimera, CF (R&D Systems Cat#1129-ER) (human, UniProt P04626 23-652).
T14 construct: Bought Fc chimera; also called HER2/neu; not shown: Fc of the bought chimera
Put plainly: ECL (MSD multi-spot), antigen on plate, Fab 50 nM.

The target of assay [15] is T15, rHuman EGF R/Fc Chimera, CF (R&D Systems Cat#344-ER) (human, UniProt P00533 25-645).
T15 construct: Bought Fc chimera; also called ErbB-1; not shown: Fc of the bought chimera
As to the kind of experiment: ECL (MSD multi-spot), antigen on plate, Fab 50 nM.

In assay [16] the target is T16, rHuman HGF R/c-MET/Fc Chimera, CF (R&D Systems Cat#358-MT/CF) (human, UniProt P08581 25-932).
T16 construct: Bought Fc chimera; also called HGF R/Fc; not shown: Fc of the bought chimera
As to the kind of experiment: ECL (MSD multi-spot), antigen on plate, Fab 50 nM.

The target of assay [17] is T17, rHuman Notch-1/Fc Chimera, CF (R&D Systems Cat#3647-TK) (human, UniProt P46531 19-526).
T17 construct: Bought Fc chimera; not shown: Fc of the bought chimera
Put plainly: ECL (MSD multi-spot), antigen on plate, Fab 50 nM.

Assay [18] deals with T18, rHuman CD44/Fc Chimera, CF (R&D Systems Cat#3660-CD) (human, UniProt P16070 21-220).
T18 construct: Bought Fc chimera; not shown: Fc of the bought chimera
As to the kind of experiment: ECL (MSD multi-spot), antigen on plate, Fab 50 nM.
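Also: blank spot per well as comparator with Hit at signal to blank ratio of 4 or more.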

B1: Fab VH1-46_IGHD3-10*01_IGHJ4*01 & B3_IGKJ1*01 (Fab, V domains shown)
VH: QVQLVQSGAEVKKPGASVKVSCKASGYTFTSYYMHWVRQAPGQGLEWMGIINPSGGSTSYAQKFQGRVTMTRDTSTSTVYMELSSLRSEDTAVYYCAREYYYGSGSYYNDYFDYWGQGTLVTVSS
VL: not shown
notes: also called IGHV1-46*01
As to B1, the ECL signal amounted to 363 in [1]; 312 in assay [2]; 203 in [3]; 389 in [4]; 317 in [5]; 347 in [6]. In [7], this molecule had an ECL signal of 215.

B2: Fab VH1-46_IGHD6-6*01_IGHJ1*01_S102A_S103P_S104F_H111Y & L6_IGKJ1*01 (Fab, V domains shown)
VH: QVQLVQSGAEVKKPGASVKVSCKASGYTFTSYYMHWVRQAPGQGLEWMGIINPSGGSTSYAQKFQGRVTMTRDTSTSTVYMELSSLRSEDTAVYYCAREEYAPFSAEYFQYWGQGTLVTVSS
VL: not shown
notes: Fab made in E. coli; The heavy chain also carries the CH1 with Flag and His tags of Plasmid A, and the light chain the kappa constant region of Plasmid C
On to B2, for which the ECL signal in [8] came to 331; in assay [9], 319.

B3: Fab VH1-46_IGHD6-6*01_IGHJ1*01_S102A_S103P_S104F & L6_IGKJ1*01_S31K (Fab, V domains shown)
VH: QVQLVQSGAEVKKPGASVKVSCKASGYTFTSYYMHWVRQAPGQGLEWMGIINPSGGSTSYAQKFQGRVTMTRDTSTSTVYMELSSLRSEDTAVYYCAREEYAPFSAEYFQHWGQGTLVTVSS
VL: EIVLTQSPATLSLSPGERATLSCRASQSVSKYLAWYQQKPGQAPRLLIYDASNRATGIPARFSGSGSGTDFTLTISSLEPEDFAVYYCQQRSNWPPWTFGQGTKVEIKR
notes: Fab
Consider B3, for which the ECL signal in [10] was determined as 257 ECL signal; in assay [11], 411 ECL signal; in assay [12], 574 ECL signal; in [13], 35300 ECL signal; in assay [14], 397 ECL signal; in [15] it was 350 ECL signal. Further, the ECL signal in assay [16] was 257 ECL signal; in [17], 355 ECL signal; in assay [18], 262 ECL signal.

These data come from patent US20120058906A1 (published 2012).
